Sequences and labels used below:
B1: LINE1-full (parent)
chain: UACGUAGGUGGUUUUCCCCUGAUAGUGCUAAGGGGGCCUGGAAGUUUGGACUGGGCAGAGCUCAACACAGCGUGGCAAAGUGGCUGUGGCUAGACUGCCUCUCUGGAUUCCUCGUCACUCAGCAGGGCAUCUCUGAGAGAAAUGCC

The variants in this data set derive from B1. Briefly: self-cleavage, relative activity (ratio to wild type); higher = more cleavage; in vitro, sequencing; the parent is a self-cleaving ribozyme.
In the case of UACGUAGGUGGUUUUCCCCUGAUAGUGCUAAGGGGGCCAGGAAGUUUGGACUGGGCAGAGCUCAACACAGCGUGGCAAAGUGGCUGUGGCUAGACUGCCUCUCUGGAUUCCUCGUCACUCAGCAGGGCAUCUCUGAGAGAAAUGCC [U39A], the self-cleavage stood at 1.34.

Regarding UACGUAGGUGGUUUUCCCCUGAUAGUGCUAAGGGGGCUUGUAAGUUUGGACUGGGCAGAGCUCAACACAGCGUGGCAAAGUGGCUGUGGCUAGACUGCCUCUCUGGAUUCCUCGUCACUCAGCAGGGCAUCUCUGAGAGAAAUGCC [C38U G41U], the self-cleavage is 1.21.

For the variant UACGUAGGUGGUUUUCCCCUGAUAGUGCUAAGGGGGCCAGGAAGUUUGGACUGGGCAGAGCUCAACGCAGCGUGGCAAAGUGGCUGUGGCUAGACUGCCUCUCUGGAUUCCUCGUCACUCAGCAGGGCAUCUCUGAGAGAAAUGCC [U39A A67G], the self-cleavage was 0.43.

Take UACGUAGGUGGUUUUCCCCUGAUAGUGCUAAGGGGGCCAGGAAGUUUGGACUGGGCAGAGCUCAACUCAGCGUGGCAAAGUGGCUGUGGCUAGACUGCCUCUCUGGAUUCCUCGUCACUCAGCAGGGCAUCUCUGAGAGAAAUGCC [U39A A67U]: the self-cleavage was 0.07.

For the variant UACGUAGGUGGUUUUCCCCUGAUAGUGCUAAGGGGGCCAGGAAGUUUGGACUGGGCAGAGCUCAACACAGCGUGGCGAAGUGGCUGUGGCUAGACUGCCUCUCUGGAUUCCUCGUCACUCAGCAGGGCAUCUCUGAGAGAAAUGCC [U39A A77G], the self-cleavage is 2.32. Then UACGUAGGUGGUUUUCCCCUGAUAGUGCUAAGGGGGCCAGGAAGUUUGGACUGGGCAGUGCUCAACACAGCGUGGCAAAGUGGCUGUGGCUAGACUGCCUCUCUGGAUUCCUCGUCACUCAGCAGGGCAUCUCUGAGAGAAAUGCC [U39A A59U], with 1.19; and UACGUAGGUGGUUUUCCCCUGAUAGUGCUAAGGGGGCCAGGAAGUUUGGACUGGGCAGGGCUCAACACAGCGUGGCAAAGUGGCUGUGGCUAGACUGCCUCUCUGGAUUCCUCGUCACUCAGCAGGGCAUCUCUGAGAGAAAUGCC [U39A A59G], with 0.08. Consider UACGUAGGUGGUUUUCCCCUGAUAGUGCUAAGGGGGCUAGGAAGUUUGGACUGGGCAGAGCUCAACACAGCGUGGCAAAGUGGCUGUGGCUAGACUGCCUCUCUGGAUUCCUCGUCACUCAGCAGGGCAUCUCUGAGAGAAAUGCC [C38U U39A], for which the self-cleavage came to 1.09. Take UACGUAGGUGGUUUUCCCCUGAUAGUGCUAAGGGGGCUUGGAAGUUUGGACUGGGCAGAGCUCAACACAGCGUGGCAAAGUGGCUGUGGCUAGACUGCCUCUCUGGAUUCCUCGUCACUCAGCAGGGCAUCUCUGAGGGAAAUGCC [C38U A138G]: the self-cleavage came to 0.83. For the variant UACGUAGGUGGUUUUCCCCUGAUAGUGCUAAGGGGGCCAGGAAGUUUGGACUGGGCAGAGCUCAUCACAGCGUGGCAAAGUGGCUGUGGCUAGACUGCCUCUCUGGAUUCCUCGUCACUCAGCAGGGCAUCUCUGAGAGAAAUGCC [U39A A65U], the self-cleavage was 0.15. Then UACGUAGGUGGUUUUCCCCUGAUAGUGCUAAGGGGGCCAGGAAGUUUGGACUGGGCAGAGCUCAGCACAGCGUGGCAAAGUGGCUGUGGCUAGACUGCCUCUCUGGAUUCCUCGUCACUCAGCAGGGCAUCUCUGAGAGAAAUGCC [U39A A65G], with 0.05; and UACGUAGGUGGUUUUCCCCUGAUAGUGCUAAGGGGGCUUGGAGGUUUGGACUGGGCAGAGCUCAACACAGCGUGGCAAAGUGGCUGUGGCUAGACUGCCUCUCUGGAUUCCUCGUCACUCAGCAGGGCAUCUCUGAGAGAAAUGCC [C38U A43G], with 0.81.

As to UACGUAGGUGGUUUUCCCCUGAUAGUGCUAAGGGGGCUUGGAAGUUUGGACUGGGCAGAGCUCAACACAGCGUGGCAAAGUGGCUGUGGCUAGACUGCCUCUCUGGAUUCCUCGACACUCAGCAGGGCAUCUCUGAGAGAAAUGCC [C38U U115A], the self-cleavage is 1.46. As to UACGUAGGUGGUUUUCCCCUGAUAGUGCUAAGGGGGCUUGGAAGUUUGGACUGGGCAGAGCUCAACACAGCGUGGCAAAGUGGCUGUGGCUAGACUGCCUCUCUGGAUUCCUCGCCACUCAGCAGGGCAUCUCUGAGAGAAAUGCC [C38U U115C], the self-cleavage turned out to be 1.6.

UACGUAGGUGGUUUUCCCCUGAUAGUGCUAAGGGGGCGUGGAAGUUUGGACUGGGCAGAGCUCAACACAGCGUGGCAAAGUGGCUGUGGCUAGACUGCCUCUCUGGAUUCCUCGUCACUCAGCAGGGCAUCUCUGAGUGAAAUGCC [C38G A138U]: the self-cleavage stood at 1.31.

Regarding UACGUAGGUGGUUUUCCCCUGAUAGUGCUAAGGGGGCGUGGAAGUUUGGACUGGGCAGAGCUCAACACAGCGAGGCAAAGUGGCUGUGGCUAGACUGCCUCUCUGGAUUCCUCGUCACUCAGCAGGGCAUCUCUGAGAGAAAUGCC [C38G U73A], the self-cleavage came out at 1.76. The value for UACGUAGGUGGUUUUCCCCUGAUAGUGCUAAGGGGGCCAGGAAGUUUGGACUGGGCUGAGCUCAACACAGCGUGGCAAAGUGGCUGUGGCUAGACUGCCUCUCUGGAUUCCUCGUCACUCAGCAGGGCAUCUCUGAGAGAAAUGCC [U39A A57U] was 0.12. The value for UACGUAGGUGGUUUUCCCCUGAUAGUGCUAAGGGGGCCAGGAAGUUUGGACUGGGCGGAGCUCAACACAGCGUGGCAAAGUGGCUGUGGCUAGACUGCCUCUCUGGAUUCCUCGUCACUCAGCAGGGCAUCUCUGAGAGAAAUGCC [U39A A57G] was 0.87; that for UACGUAGGUGGUUUUCCCCUGAUAGUGCUAAGGGGGCUUGGAAGUUUGGACUGGGCAGAGCUCAACACAGCGUGGCAAAGUGGCUGUGGCUAGAUUGCCUCUCUGGAUUCCUCGUCACUCAGCAGGGCAUCUCUGAGAGAAAUGCC [C38U C95U] was 0.21. Then UACGUAGGUGGUUUUCCCCUGAUAGUGCUAAGGGGGCUUGGAAGUUUGGACUGGGCAGAGCUCAACACAGCGUGGCAAAGUGGCUGUGGCUAGACUGCCUCUCUGGAUUACUCGUCACUCAGCAGGGCAUCUCUGAGAGAAAUGCC [C38U C110A], with 1.64. On to UACGUAGGUGGUUUUCCCCUGAUAGUGCUAAGGGGGCUUGGAAGUUUGGACUGGGCAGAGCUCAACACGGCGUGGCAAAGUGGCUGUGGCUAGACUGCCUCUCUGGAUUCCUCGUCACUCAGCAGGGCAUCUCUGAGAGAAAUGCC [C38U A69G], for which the self-cleavage was 0.49. As for UACGUAGGUGGUUUUCCCCUGAUAGUGCUAAGGGGGCCAGGAAGUUUGGACUGGGCAGAGCUCAACACAGCGUGGCAGAGUGGCUGUGGCUAGACUGCCUCUCUGGAUUCCUCGUCACUCAGCAGGGCAUCUCUGAGAGAAAUGCC [U39A A78G], the self-cleavage came to 1.38. The value for UACGUAGGUGGUUUUCCCCUGAUAGUGCUAAGGGGGCUUGGAAGUUUGGACUGGGCAGAGCUCAACACAGCGUGGCAAAGUGGCUGUGGCUAGACUGCCUCUCUGGAUUCCUCGUCACUCAGCAGGGCAUCUCCGAGAGAAAUGCC [C38U U134C] was 1.14. Then UACGUAGGUGGUUUUCCCCUGAUAGUGCUAAGGGGGCUUGGAAGUUUGGACUGGGCAGAGCUCAACACAGCGUGGCAAAGUGGCUGUGGCUAGACUGCCUCUCUGGAUUCCUCGUCACUCAGCAGGGCACCUCUGAGAGAAAUGCC [C38U U130C], with 1.46; and UACGUAGGUGGUUUUCCCCUGAUAGUGCUAAGGGGGCCAGGAAGUUUGGACUGGGCAGAGCUCAACACGGCGUGGCAAAGUGGCUGUGGCUAGACUGCCUCUCUGGAUUCCUCGUCACUCAGCAGGGCAUCUCUGAGAGAAAUGCC [U39A A69G], with 0.55. With UACGUAGGUGGUUUUCCCCUGAUAGUGCUAAGGGGGCCAGGAAGUUUGGACUGGGCAGAGCUCAACACUGCGUGGCAAAGUGGCUGUGGCUAGACUGCCUCUCUGGAUUCCUCGUCACUCAGCAGGGCAUCUCUGAGAGAAAUGCC [U39A A69U], the self-cleavage is 0.04. The value for UACGUAGGUGGUUUUCCCCUGAUAGUGCUAAGGGGGCAUGGAAGUUUGGACUGGGCAGAGCUCAACACAGCGUGGCAAAGUGGCUGUGGCUAGACUGCCUCUCUGGAUUCCUCGUCACUCAGCAGGGCAUCUCUGAGAGAAAGGCC [C38A U143G] was 1.43. As to UACGUAGGUGGUUUUCCCCUGAUAGUGCUAAGGGGGCUUGGAAGUUUGGACUGGGCAGAGCUCAACACAGCGUGGCAAAGUGGCUGUGGCUAGACUGCCUCUCUGGAUUCCUCGUCACUCAGCAGGGCAUCUCUGUGAGAAAUGCC [C38U A136U], the self-cleavage was determined as 1.08. Then UACGUAGGUGGUUUUCCCCUGAUAGUGCUAAGGGGGCUUGGAAGUUUGGACUGGGCAGAGCUCAACACAGCGUGGCAAAGUGGCUGUGGCUAGACUGCCUCUCUGGAUUCCUCGUCGCUCAGCAGGGCAUCUCUGAGAGAAAUGCC [C38U A117G], with 2.38; and UACGUAGGUGGUUUUCCCCUGAUAGUGCUAAGGGGGCUUGGAAGUUUGGACUGGGCAGAGCACAACACAGCGUGGCAAAGUGGCUGUGGCUAGACUGCCUCUCUGGAUUCCUCGUCACUCAGCAGGGCAUCUCUGAGAGAAAUGCC [C38U U62A], with 0.02.

With UACGUAGGUGGUUUUCCCCUGAUAGUGCUAAGGGGGCUUGGAAGUUUGGACUGGGCAGAGCCCAACACAGCGUGGCAAAGUGGCUGUGGCUAGACUGCCUCUCUGGAUUCCUCGUCACUCAGCAGGGCAUCUCUGAGAGAAAUGCC [C38U U62C], the self-cleavage is 0.

As to UACGUAGGUGGUUUUCCCCUGAUAGUGCUAAGGGGGCUUGGAAGUUUGGACUGGGCAGAACUCAACACAGCGUGGCAAAGUGGCUGUGGCUAGACUGCCUCUCUGGAUUCCUCGUCACUCAGCAGGGCAUCUCUGAGAGAAAUGCC [C38U G60A], the self-cleavage worked out at 0.05. The value for UACGUAGGUGGUUUUCCCCUGAUAGUGCUAAGGGGGCGUGGAAGUUUGGACAGGGCAGAGCUCAACACAGCGUGGCAAAGUGGCUGUGGCUAGACUGCCUCUCUGGAUUCCUCGUCACUCAGCAGGGCAUCUCUGAGAGAAAUGCC [C38G U52A] was 1.04; that for UACGUAGGUGGUUUUCCCCUGAUAGUGCUAAGGGGGCUUGGAAGCUUGGACUGGGCAGAGCUCAACACAGCGUGGCAAAGUGGCUGUGGCUAGACUGCCUCUCUGGAUUCCUCGUCACUCAGCAGGGCAUCUCUGAGAGAAAUGCC [C38U U45C] was 1.39. The value for UACGUAGGUGGUUUUCCCCUGAUAGUGCUAAGGGGGCCAGGAUGUUUGGACUGGGCAGAGCUCAACACAGCGUGGCAAAGUGGCUGUGGCUAGACUGCCUCUCUGGAUUCCUCGUCACUCAGCAGGGCAUCUCUGAGAGAAAUGCC [U39A A43U] was 1.39; that for UACGUAGGUGGUUUUCCCCUGAUAGUGCUAAGGGGGCUUGGAAGUUUGGACUGGGCAGAGCUCAACACAGCGUGGCAAAGUGGCUGUGGCUAGACCGCCUCUCUGGAUUCCUCGUCACUCAGCAGGGCAUCUCUGAGAGAAAUGCC [C38U U96C] was 0.17. Then UACGUAGGUGGUUUUCCCCUGAUAGUGCUAAGGGGGCUUGGAAGUUUGGACUGGGCAGAGCUCAACACAGCGUGGCAAAGUGGCUGUGGCUAGACAGCCUCUCUGGAUUCCUCGUCACUCAGCAGGGCAUCUCUGAGAGAAAUGCC [C38U U96A], with 0.04; and UACGUAGGUGGUUUUCCCCUGAUAGUGCUAAGGGGGCUUGGAAGUUCGGACUGGGCAGAGCUCAACACAGCGUGGCAAAGUGGCUGUGGCUAGACUGCCUCUCUGGAUUCCUCGUCACUCAGCAGGGCAUCUCUGAGAGAAAUGCC [C38U U47C], with 0.93; and UACGUAGGUGGUUUUCCCCUGAUAGUGCUAAGGGGGCUUGGAAGUAUGGACUGGGCAGAGCUCAACACAGCGUGGCAAAGUGGCUGUGGCUAGACUGCCUCUCUGGAUUCCUCGUCACUCAGCAGGGCAUCUCUGAGAGAAAUGCC [C38U U46A], with 1.28.

The values above are taken from the RNAGym collection of RNA variant scans (doi:10.7554/elife.90254).
